Results on one substance are retold here after US12366576B2, “Compositions, assays, and methods for direct modulation of fatty acid metabolism” (Dana-Farber Cancer Institute, Inc., priority 2016, dated 2025).

Bridge positions count the residues as written; N and C are the ends. Square brackets hold non-standard residues; d marks the D form. Ends that are not written are not given here. S5 = C=CCCC[C@](C)(N)C(=O)O

The subject of one series is Mcl-1^F/F CreER^T2 cells. Particulars: vehicle and tamoxifen exposed cells; except at the highest dose applied (100 μM).
For a further series, the target named is T1, MCL-1ΔNΔC (Homo sapiens, UniProt Q07820).
T1 construct: The MCL-1ΔNΔC construct was grown and expressed in E. coli as previously described; made in house; host or cells: E. coli BL21(DE3)
Nature of the series: Biolayer interferometry. The series is classed as binding. The conditions noted are these: Biotin-PEG peptide immobilized on streptavidin sensors. A general note: In BLI a coated tip is dipped into the sample, and binding shifts an interference pattern.

Another series addresses T2, VLCAD (Homo sapiens, UniProt P49748).
T2 construct: 10x His (N); made in house; host or cells: E. coli BL21(DE3), pET19b
T2 sequence (P49748 40-655): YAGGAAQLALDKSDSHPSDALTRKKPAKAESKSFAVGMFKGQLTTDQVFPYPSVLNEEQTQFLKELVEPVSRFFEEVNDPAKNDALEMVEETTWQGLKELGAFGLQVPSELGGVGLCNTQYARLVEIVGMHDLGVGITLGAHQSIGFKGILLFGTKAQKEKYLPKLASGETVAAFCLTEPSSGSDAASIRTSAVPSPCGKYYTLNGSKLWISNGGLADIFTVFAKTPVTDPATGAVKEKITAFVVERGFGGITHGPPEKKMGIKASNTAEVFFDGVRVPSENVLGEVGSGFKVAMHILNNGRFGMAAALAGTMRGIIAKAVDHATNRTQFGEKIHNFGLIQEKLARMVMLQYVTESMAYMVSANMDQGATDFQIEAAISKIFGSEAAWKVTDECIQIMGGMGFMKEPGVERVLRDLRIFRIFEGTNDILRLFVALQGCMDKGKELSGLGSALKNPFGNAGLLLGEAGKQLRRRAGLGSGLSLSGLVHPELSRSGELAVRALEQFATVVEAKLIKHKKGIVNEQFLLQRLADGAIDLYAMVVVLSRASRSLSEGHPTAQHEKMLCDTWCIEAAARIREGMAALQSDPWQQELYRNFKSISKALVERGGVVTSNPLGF
Briefly: 19F NMR binding study with fluorinated SAHB. Particulars: fluorinated SAHB 25 μM, VLCAD 0-125 μM. As for the experimental part:
To measure the direct binding interaction, ^19F NMR binding studies were conducted using fluorinated analogs of MCL-1 SAHBD. […] Both SAHBs, however, bind MCL-1ΔNΔC, as illustrated by a chemical shift of the peptide NMR peak in both cases (FIG. 15). […] To perform these experiments, N-terminal Btn-PEG analogs of the peptides were immobilized onto streptavidin probes that were then placed into protein solutions at a variety of concentrations to measure ligand-target association.
VLCAD. Mature human VLCAD lacking its cleavable leader sequence (aa 40-655) (NP_000009.1) was subcloned into the pET19b vector (Novagen) using NdeI and XhoI restriction sites. Correct insertion was confirmed by DNA sequencing. […]
To determine binding of SAHBs to VLCAD, fluorinated SAHB (25 μM) and VLCAD (0-125 μM) were mixed together in VLCAD FPLC buffer including 10% D2O to a final volume of 500 μL. […] The extent to which VLCAD bound the peptide was determined by measuring the peak width at half height (ν1/2) of the peptide ^19F signal. […] MCL-1ΔNΔC binding to SAHBs causes a change in the ^19F chemical shift of the peptide resulting in two peptide signals (instead of peak broadening), so extent of binding was quantified by measuring the peak height of “unbound” peptide relative to the bound peptide signal.

T1 sequence (Q07820 172-320 limits assumed, stated change not applied): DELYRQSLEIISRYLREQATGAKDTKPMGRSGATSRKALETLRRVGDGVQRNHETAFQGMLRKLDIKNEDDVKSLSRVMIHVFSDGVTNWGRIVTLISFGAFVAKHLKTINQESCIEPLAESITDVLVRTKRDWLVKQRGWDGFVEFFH

As for “MCL-1 SAHBD: hydrocarbon-stapled peptide mimicking the MCL-1 BH3 domain (Stabilized Alpha-Helix of BCL-2 Domain), SEQ ID NO:19 (RKALETLRRVGDGV[S5]RNH[S5]TAF; staple 15-19)”, in the series with Mcl-1^F/F CreER^T2 cells, the “cytotoxicity (cell viability)” value is “Essentially no cytotoxicity”. Moreover, the “biolayer interferometry association with MCL-1” value with MCL-1ΔNΔC is reported as “bind to MCL-1”. Moreover, the “19F NMR peptide peak broadening on VLCAD titration” value with VLCAD was “peak broadens, indicative of a direct binding event”.
